{"source": "patent US20230009539A1", "about": "(CLEVELAND CLINIC FOUNDATION, published 2023)", "binders": {"B1": {"name": "FLAG-tagged mouse wild-type Act1 (WT) (other, UniProt Q8N7N6 1-555, looked up)", "chain": "MNRSIPVEVDESEPFPSQLLKPIPEYSPEEELEPPAPNTRNMAPSSLSVLQCPPLKLANHQPVSQQVTCLRAKVLEEGEASFFRRHPELGKDISSCSSGASEPESELGALPPEHRFTLTEKRNRWLGSQLSAASPDTGHESDKSDPSLPNALADSFSGGQEMMPRPRPRPGPHRHRAAPDVPTIDTGYDSQPQDVLGIRQLERPLPLTSSCYLQDLPGPLRSRELPPQFELERYPMNAQLLPPHPSPQAPWNCQYYCPGGPYHHQVPHGHGYPPAAAYQQVLQPALPGQVLPGARARGPRPVQKVILNDSSPQDQEERPAQRDFSFPRLPRDQLYRPPSNGVEAPEESLDLPAELRPHGPQAPSLAAVPRPPSNPLARGTLRTSNLPEELRKVFITYSMDTAMEVVKFVNFLLVNGFQTAIDIFEDRIRGIDIIKWMERYLRDKTVMIIVAISPKYKQDVEGAESQLDEDEHGLHTKYIHRMMQIEFISQGSMNFRFIPVLFPNAKKEHVPTWLQNTHVYSWPKNKKNILLRLLREEEYVAPPRGPLPTLQVVPL", "notes": "also called flag-tagged mAct1; flag-Act1; not shown: FLAG tag"}}, "target": "T1, IKKi (endogenous, MEFs) (mouse (MEFs), UniProt Q9R0T8 1-717)", "T1 sequence (looked up)": "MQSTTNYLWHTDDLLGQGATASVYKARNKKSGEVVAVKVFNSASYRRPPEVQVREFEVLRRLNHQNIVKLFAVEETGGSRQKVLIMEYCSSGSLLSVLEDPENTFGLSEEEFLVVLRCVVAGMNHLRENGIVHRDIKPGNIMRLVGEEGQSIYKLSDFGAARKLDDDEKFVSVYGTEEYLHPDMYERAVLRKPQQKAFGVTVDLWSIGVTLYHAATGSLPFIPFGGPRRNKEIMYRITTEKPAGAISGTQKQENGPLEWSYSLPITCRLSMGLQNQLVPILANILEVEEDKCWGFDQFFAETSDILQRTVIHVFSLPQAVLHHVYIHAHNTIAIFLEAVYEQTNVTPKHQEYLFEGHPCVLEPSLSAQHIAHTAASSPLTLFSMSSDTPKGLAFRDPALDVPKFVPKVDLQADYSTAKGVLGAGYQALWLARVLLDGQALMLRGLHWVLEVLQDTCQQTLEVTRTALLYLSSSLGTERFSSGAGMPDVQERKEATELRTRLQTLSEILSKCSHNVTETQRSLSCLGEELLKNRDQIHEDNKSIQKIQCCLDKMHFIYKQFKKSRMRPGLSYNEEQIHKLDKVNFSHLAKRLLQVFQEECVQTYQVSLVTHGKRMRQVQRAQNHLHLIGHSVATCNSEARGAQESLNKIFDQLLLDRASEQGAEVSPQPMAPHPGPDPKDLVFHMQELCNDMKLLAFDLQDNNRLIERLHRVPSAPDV", "assay": "anti-FLAG immunoprecipitation from cytoplasmic and nuclear fractions of reconstituted MEFs (FIG. 5G)", "protocol": "Immunoblot, immunoprecipitation and nuclear fractionation: Cell were harvested and lysed on ice in a lysis buffer containing 0.5% Triton X-100, 20 mM Hepes pH 7.4, 150 mM NaCl, 12.5 mM-glycerophosphate, 1.5 mM MgCl2, 10 mM NaF, 2 mM dithiothreitol, 1 mM sodium orthovanadate, 2 mM EGTA, […], and 1 mM phenylmethylsulfonyl fluoride for 20 minutes, followed by centrifuging at 12,000 rpm for 15 minutes to extract clear lysates. For immunoprecipitation, cell lysates were incubated with 1 μg of antibody and A-sepharose beads at 4 degree overnight. After incubation, the beads were washed four times with lysis buffer and the precipitates were eluted with 2× sample buffer. Elutes and whole cell extracts were resolved on SDS-PAGE followed by immunobloting with antibodies. Nuclear fractionation was performed using NUCLEI EZ PREP kit purchased from Sigma in accordance with the manufacturer's instruction. Nuclear pellets were suspended in 30p1 of nuclear extraction buffer (20 mM HEPES, 400 mM NaCl, 1 mM EDTA, 1 mM EGTA in water, pH 7.9) containing freshly prepared 1 mM DTT and protease inhibitor cocktail. After 1.5 h incubation on ice bath with intermittent vortexing, extracts were centrifuged and supernatant was collected for immunoprecipitation.", "data": [{"binder": "B1", "values": [{"measurement": "binding result", "value": "binds"}]}]}
